Our source for the TLR-4 protein expression level (Western blot) in Caco-2 cells incubated with rTsgal (50 µg/mL) for 48 h, increase against the PBS group, TLR-4 transcription level (qPCR) in Caco-2 cells incubated with rTsgal (50 µg/mL) for 48 h, increase against the PBS group and NF-κB p65 transcription level (qPCR) in Caco-2 cells treated with rTsgal for 48 h, increase against the PBS group values is publication PMC10680189.

The target of experiment [1] is Toll-like receptor 4 (TLR-4) of Caco-2 cells (human (endogenous in Caco-2)) (UniProt O00206).
Experiment [2] has the same target. The source holds these as a separate data set.

UniProt O00206, sequence (O00206 24-839): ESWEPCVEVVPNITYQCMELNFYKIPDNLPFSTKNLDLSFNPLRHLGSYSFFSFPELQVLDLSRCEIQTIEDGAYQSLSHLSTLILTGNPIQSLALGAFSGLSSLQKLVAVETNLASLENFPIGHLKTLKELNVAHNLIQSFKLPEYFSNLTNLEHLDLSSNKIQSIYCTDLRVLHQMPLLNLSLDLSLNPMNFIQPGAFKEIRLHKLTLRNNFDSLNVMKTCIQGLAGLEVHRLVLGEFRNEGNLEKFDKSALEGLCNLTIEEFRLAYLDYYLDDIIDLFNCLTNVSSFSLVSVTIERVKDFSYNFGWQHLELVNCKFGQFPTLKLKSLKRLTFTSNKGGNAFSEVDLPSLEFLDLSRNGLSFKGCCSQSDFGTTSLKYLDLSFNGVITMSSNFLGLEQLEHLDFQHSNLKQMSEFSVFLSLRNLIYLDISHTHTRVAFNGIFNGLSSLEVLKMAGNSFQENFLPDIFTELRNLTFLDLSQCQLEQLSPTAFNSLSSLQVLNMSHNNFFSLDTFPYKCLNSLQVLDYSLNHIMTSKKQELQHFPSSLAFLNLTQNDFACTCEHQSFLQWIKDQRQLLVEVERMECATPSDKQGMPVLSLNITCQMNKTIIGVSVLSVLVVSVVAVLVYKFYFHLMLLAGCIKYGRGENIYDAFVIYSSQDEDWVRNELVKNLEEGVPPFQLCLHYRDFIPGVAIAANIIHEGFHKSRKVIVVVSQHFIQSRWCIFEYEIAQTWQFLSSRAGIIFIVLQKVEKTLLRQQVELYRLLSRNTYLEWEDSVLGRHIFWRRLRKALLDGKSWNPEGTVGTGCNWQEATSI

For the substance “recombinant Trichinella spiralis galectin with GST tag (GST-rTsgal) (natural protein)”, in experiment [1], the TLR-4 protein expression level (Western blot) in Caco-2 cells incubated with rTsgal (50 µg/mL) for 48 h, increase against the PBS group is 47.7% and the TLR-4 transcription level (qPCR) in Caco-2 cells incubated with rTsgal (50 µg/mL) for 48 h, increase against the PBS group came out at 18.4%. Also, the NF-κB p65 transcription level (qPCR) in Caco-2 cells treated with rTsgal for 48 h, increase against the PBS group in experiment [2] worked out at 60.2%.
